Measurements published in paper PMC6509284, “Aurora B-INCENP Localization at Centromeres/Inner Kinetochores Is Required for Chromosome Bi-orientation in Budding Yeast” (Current Biology, 2019).

Molecular target: T1, recombinant COMA (Ctf19-Okp1-Mcm21-Ame1) inner kinetochore sub-complex (budding yeast (S. cerevisiae), UniProt P53298 1-406; P38313 1-324; Q02732 1-369; Q06675 1-368)
T1 construct: Okp1, budding yeast, essential COMA component; His-Okp1 printed as 49 kDa; Ame1, budding yeast, essential COMA component; printed as 37 kDa; Ctf19, budding yeast, non-essential COMA component; 'coding regions' cloned; printed as 43 kDa; Mcm21, budding yeast, non-essential COMA component; also called COMA components; source: E. coli RosettaGami2(DE3)pLysS, four subunits co-expressed, purified …
T1 sequence (P53298 whole entry, chain 1 of 4): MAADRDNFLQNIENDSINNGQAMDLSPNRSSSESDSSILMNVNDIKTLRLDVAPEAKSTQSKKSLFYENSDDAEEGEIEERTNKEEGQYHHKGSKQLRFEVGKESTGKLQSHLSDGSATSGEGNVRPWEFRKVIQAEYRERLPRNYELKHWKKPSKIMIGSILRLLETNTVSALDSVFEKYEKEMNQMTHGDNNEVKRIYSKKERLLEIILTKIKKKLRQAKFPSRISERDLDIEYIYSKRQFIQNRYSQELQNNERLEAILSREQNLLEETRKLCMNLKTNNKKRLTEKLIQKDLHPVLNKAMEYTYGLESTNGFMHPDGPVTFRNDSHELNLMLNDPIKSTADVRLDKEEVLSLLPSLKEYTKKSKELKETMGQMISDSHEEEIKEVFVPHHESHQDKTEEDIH
T1 sequence (P38313 whole entry, chain 2 of 4): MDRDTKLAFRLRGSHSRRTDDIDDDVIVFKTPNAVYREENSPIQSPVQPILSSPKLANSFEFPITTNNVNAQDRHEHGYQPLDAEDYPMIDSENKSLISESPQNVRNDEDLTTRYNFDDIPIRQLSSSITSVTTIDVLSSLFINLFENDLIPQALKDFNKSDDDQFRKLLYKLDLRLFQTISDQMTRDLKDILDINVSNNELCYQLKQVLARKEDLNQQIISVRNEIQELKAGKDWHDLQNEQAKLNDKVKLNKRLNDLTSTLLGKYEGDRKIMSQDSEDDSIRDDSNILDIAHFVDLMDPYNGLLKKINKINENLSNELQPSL
T1 sequence (Q02732 whole entry, chain 3 of 4): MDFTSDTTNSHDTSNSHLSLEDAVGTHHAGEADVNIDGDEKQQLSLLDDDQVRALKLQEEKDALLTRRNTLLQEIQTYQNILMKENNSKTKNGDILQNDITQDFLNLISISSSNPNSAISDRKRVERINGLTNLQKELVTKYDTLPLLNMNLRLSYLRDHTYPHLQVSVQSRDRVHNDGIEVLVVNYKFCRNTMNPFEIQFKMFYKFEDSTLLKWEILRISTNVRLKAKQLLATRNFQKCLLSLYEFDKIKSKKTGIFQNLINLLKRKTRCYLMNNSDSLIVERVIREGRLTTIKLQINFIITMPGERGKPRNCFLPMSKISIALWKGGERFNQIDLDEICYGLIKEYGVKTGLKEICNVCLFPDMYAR
T1 sequence (Q06675 whole entry, chain 4 of 4): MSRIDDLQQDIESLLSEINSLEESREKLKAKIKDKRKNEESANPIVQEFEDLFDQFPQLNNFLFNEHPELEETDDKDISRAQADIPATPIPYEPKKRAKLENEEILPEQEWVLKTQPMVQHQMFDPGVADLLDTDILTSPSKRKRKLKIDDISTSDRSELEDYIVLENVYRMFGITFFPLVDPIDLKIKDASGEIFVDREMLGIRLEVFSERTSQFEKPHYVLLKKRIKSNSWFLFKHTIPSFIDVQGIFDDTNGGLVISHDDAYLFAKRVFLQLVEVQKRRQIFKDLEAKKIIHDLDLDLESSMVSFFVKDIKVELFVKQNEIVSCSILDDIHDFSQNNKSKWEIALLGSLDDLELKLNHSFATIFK
Assay: pull-down; GST fusion proteins incubated with purified COMA in 50 mM HEPES-NaOH pH 7.4, 150 mM NaCl, 5% glycerol, 0.05% Igepal, 2 mM DTT, 0.5 mM EDTA, 20 min at 4°C, then 1 h on GST-Trap Agarose at 4°C, three washes; Coomassie blue staining, anti-His western blot and mass spectrometry
Settings: both partners purified

| Binder | binding result |
| --- | --- |
| GST-Sli15 (1-401 aa) (domain or fragment, budding yeast (S. cerevisiae), UniProt P38283 1-401, looked up, Printed size 72 kDa; source: E. coli RosettaGami2, purified (GSTrap FF, Superdex 200)) MDWAIKAARKKTQRKPGSTRSIIETLDDLNNLTTDAHSEINQRLYESSEWLRNNVYMNTLKYEDKKMEESLISPENTHNKMDVEFPKMKGEYELSNSQNDAAKDVTKTPRNGLHNDKSITPKSLRRKEVTEGMNRFSIHDTNKSPVEPLNSVKVDANESEKSSPWSPYKVEKVLRESSKTSESPINTKRFDNQTWAAKEEMENEPILQALKKAESVKVKPPPNSGIARSQRRSNMFVPLPNKDPLIIQHIPPTKSSGSIPKVRTVKESPIAFKKKSTINSPAIRAVENSDTAGSTKASSVFDRLSSIPTKSFENKISRGNVGHKYSSSSIDLTGSPMKKVSQKFKSINSTDTDMQEALRDIFSVKNKITKNNSPKGKNSRKSSIPRFDKTSLKLTTHKKLA | binds |
| GST-Sli15 (393-698 aa) (domain or fragment, budding yeast (S. cerevisiae), UniProt P38283 393-698, looked up, Sli15 (yeast INCENP), budding yeast, residues 393-698; Printed size 60 kDa; also called pGEX6P-1-GST-SLI15 (393-698); source: E. coli RosettaGami2, purified (GSTrap FF, Superdex 200)) KLTTHKKLAIIAEQKKKSKHSSDVHKTGSRPHSISPTKISVDSSSPSKEVKNYYQSPVRGYLRPTKASISPNKNKNLTTSQTPHRLKIKEKTLRKLSPNIADISKPESRKSKNYRLTNLQLLPPAEAERDDLKKKFDKRLSGIMRSQQEHHRRKQEKQKRMSHLEQDLKKQTSFSNDYKDIRLKESLAPFDNHVRDTINKNTAFSTDNILATINTVDHREIIGNVTPKIASVNDSLPEINTDSEDEASVTLAAWAKSPYLQEQLIRQQDINPQTIFGPIPPLHTDEIFPNPRLNRLKPRQIVPKRS | binds |
